Measured values taken from patent publication US20070218504A1, “HUMAN LEPTIN-DERIVED POLYPEPTIDES AND USES THEREOF” (UNIVERSITY OF PITTSBURGH, priority 2006, published 2007).

Key:
[1] = molecular target: T1, human OB-Rb (Homo sapiens, UniProt P48357); assay: 125I-labeled mouse leptin pre-incubated with human CRP, binding to HEK293 cells stably transfected with human OB-Rb; details: in the presence of 2 ng/ml mouse leptin
T1 construct: expressed in transfected cells
T1 sequence (P48357 22-1165): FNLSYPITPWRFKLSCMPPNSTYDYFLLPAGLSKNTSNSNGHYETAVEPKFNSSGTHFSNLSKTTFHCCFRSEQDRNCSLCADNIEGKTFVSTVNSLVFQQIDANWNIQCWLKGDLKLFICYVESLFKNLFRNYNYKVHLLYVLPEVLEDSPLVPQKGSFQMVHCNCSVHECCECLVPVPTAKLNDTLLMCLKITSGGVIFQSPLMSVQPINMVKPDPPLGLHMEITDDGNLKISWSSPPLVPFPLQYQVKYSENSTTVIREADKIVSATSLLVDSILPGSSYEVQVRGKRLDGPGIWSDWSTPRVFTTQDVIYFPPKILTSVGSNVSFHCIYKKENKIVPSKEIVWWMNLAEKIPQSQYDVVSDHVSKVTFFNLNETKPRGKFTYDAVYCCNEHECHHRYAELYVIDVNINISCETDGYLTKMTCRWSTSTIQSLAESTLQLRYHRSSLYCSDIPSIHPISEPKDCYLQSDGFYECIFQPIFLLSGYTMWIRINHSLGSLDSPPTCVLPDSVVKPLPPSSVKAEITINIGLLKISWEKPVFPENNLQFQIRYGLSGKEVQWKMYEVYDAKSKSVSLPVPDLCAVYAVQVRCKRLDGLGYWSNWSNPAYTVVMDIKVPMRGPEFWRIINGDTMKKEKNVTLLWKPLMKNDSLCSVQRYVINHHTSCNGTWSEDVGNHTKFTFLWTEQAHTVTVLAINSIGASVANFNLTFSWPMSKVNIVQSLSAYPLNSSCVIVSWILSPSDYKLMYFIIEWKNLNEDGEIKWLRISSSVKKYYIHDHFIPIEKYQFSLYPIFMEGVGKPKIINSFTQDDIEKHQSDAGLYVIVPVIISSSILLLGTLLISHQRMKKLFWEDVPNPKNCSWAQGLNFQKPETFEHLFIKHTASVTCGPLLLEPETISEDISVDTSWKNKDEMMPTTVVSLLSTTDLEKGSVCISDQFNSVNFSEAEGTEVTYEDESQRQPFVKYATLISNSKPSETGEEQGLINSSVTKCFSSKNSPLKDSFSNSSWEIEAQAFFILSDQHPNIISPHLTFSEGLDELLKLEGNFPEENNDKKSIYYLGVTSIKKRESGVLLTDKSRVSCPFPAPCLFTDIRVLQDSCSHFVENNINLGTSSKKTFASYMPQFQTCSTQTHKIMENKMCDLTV
Method: FIG. 4B. Effects of human CRP on mouse leptin. […] The dashed line at the bottom right of the graph indicates ^125I-leptin bound when two thousand fold excess of non-labeled mouse leptin is added.
To examine if CRP binding interferes with the stability of human leptin to bind to its receptors, a HEK293 cell line stably transfected with the long-form human leptin receptor, OB—Rb, was used (17). Human leptin was iodinated with Na^125I using the lodogen method. Briefly, 15 μg of recombinant human leptin in 100 mM Phosphate buffer pH 7.5 were incubated with 1 mCi of carrier-free Na^125I (2200 Ci/mmol) in a glass tube containing 50 μg Iodogen. After 10-minute incubation at room temperature, the reaction was stopped with 100 μl 0.1% trifluoroacetic acid (TFA). The reaction mixture was immediately purified by reverse-phase HPLC. The separation employed a 5-minute isocratic step at 20% eluant B in A, followed by two consecutive 30 min linear gradients from 20 to 50%, then from 50 to 60% eluant B in A (where eluant A is water containing 0.1% TFA and eluant B is acetonitrile containing 0.1% TFA) at a flow rate of 1.5 ml/min. The ^125I-labeled leptin (˜2 ng/ml) was pre-incubated with various concentrations of human CRP in 1 ml of μ-MEM for 1 hour before added to the OBR-expressing HEK293 cells. […]

[2] = molecular target: T2, recombinant human leptin (Homo sapiens, UniProt P41159); assay: Immuno-precipitation assay of direct binding of human CRP and human leptin; details: leptin/CRP mixture and human serum; Western blot with anti-CRP
T2 construct: purchased AF Parlow of NHPP, Torrance, CA
T2 sequence (P41159 22-167): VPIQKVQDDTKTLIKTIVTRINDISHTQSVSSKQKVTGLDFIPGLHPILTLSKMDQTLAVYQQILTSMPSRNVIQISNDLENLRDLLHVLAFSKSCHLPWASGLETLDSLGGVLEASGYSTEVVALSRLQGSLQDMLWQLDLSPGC
Method: To explore a physical interaction between CRP and leptin, the direct binding of these proteins was determined by an immuno-precipitation assay. Rat CRP was purified from fresh rat serum to >95% purity employing a previously established affinity-purification protocol (20). […] The purified human- and rat-CRP proteins were pre-mixed with recombinant human and mouse leptin, respectively, before addition of antibodies specific for human- and mouse-leptin. The concentrations of CRP and leptin in the precipitation reaction were all within the physiological ranges that have been observed in humans or rats (11 & 15). In parallel experiments, recombinant leptin also was pre-mixed with human- or rat-serum to allow for direct interaction prior to immuno-precipitation. The protein precipitates obtained were subjected to Western blot assays using specific anti-CRP antibodies.

[3] = tested on: ob/ob mice; assay: Intracerebralventricular (i.c.v.) injection of human CRP and leptin in ob/ob mice, food intake and body weight; format: in vivo, mouse; details: ob/ob mice
[4] = tested on: IL-6 induced activation of STAT3; assay: IL-6 induced activation of STAT3 in human primary hepatocytes; format: cell-based; details: even higher CRP concentration
Source text: Human hepatocytes were isolated from donor livers. Briefly, the livers were perfused in a three-step process. A calcium-free buffer supplemented with EGTA is used to break […] junctions, which is followed by the same perfusion buffer without EGTA. Finally, a calcium-containing buffer supplemented with digestive enzymes (collagenase and DNase) was used. Following digestion, parenchymal hepatocytes were isolated by three steps of low-speed centrifugation. Cells with a viability of at least 85% were plated and cultured in hepatocytes maintenance medium (HMM) (Cambrex BioScience, Walkersville, Md.) supplemented with 10% fetal bovine serum (FBS), 0.1 μM dexamethasone, 0.1 μM insulin, and 50 μg/ml gentamicin on collagen-coated tissue culture dishes for 2-4 hours. The cells were subsequently cultured in the above medium without FBS.
Approximately 24 hours after seeded, the hepatocytes were washed with serum-free HMM supplemented with 0.1 μM dexamethasone and 0.1 μM insulin, and then cultured in the same medium for another 48 hours. Subsequently, the cells were switched to serum-free HMM supplemented with 0.1 μM dexamethasone before stimulated with leptin (NHPP) or rhIL-6 (R&D Systems, Minneapolis, Minn.) for 24 hours or 48 hours. For experiments involving PI3-kinase inhibitors, hepatocytes were pretreated with LY294002 (EMD Biosciences, Calif.) for 1 hour before hormonal stimulation.

human CRP: human C-reactive protein, purified preparation from a commercial source
IC50 of human CRP for reducing 125I-labeled mouse leptin binding to receptor [1]: greater than 64 μg/ml
co-precipitation of CRP with anti-human leptin antibody [2]: could pull down human CRP
effect of i.c.v. human CRP on satiety and weight-reducing effects induced by mouse leptin [3]: did not influence
effect on IL-6 induced activation of STAT3 [4]: did not suppress
